According to paper PMC7585203 (2020):
Where no end group is shown, it is not given here. [ ]: non-standard residue; d: D form. The star is where a group is joined. 5FAM = O=C1OC2(c3ccc(O)cc3Oc3cc(O)ccc32)c2ccc(C(=O)*)cc21; Me2 = dimethyl on lysine side chain; PEG = not defined here

Experiments:
Assay in all cases: FP
[1] = target: T1, GST-tagged UHRF1 TTD–PHD S298E ( (printed UniProt entry is …, UniProt Q96T88 125-364, S298E))
T1 sequence: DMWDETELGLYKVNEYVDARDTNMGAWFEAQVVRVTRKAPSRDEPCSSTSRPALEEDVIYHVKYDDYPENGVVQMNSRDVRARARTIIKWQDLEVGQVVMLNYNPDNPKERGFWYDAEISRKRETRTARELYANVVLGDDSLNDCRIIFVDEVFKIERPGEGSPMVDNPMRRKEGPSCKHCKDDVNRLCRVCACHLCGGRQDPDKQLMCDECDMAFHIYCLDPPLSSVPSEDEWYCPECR

[2] = target: T2, GST-tagged UHRF1 TTD–PHD (a.a. 125–364) ( (printed UniProt entry is …, UniProt Q96T88 125-364))
T2 chain: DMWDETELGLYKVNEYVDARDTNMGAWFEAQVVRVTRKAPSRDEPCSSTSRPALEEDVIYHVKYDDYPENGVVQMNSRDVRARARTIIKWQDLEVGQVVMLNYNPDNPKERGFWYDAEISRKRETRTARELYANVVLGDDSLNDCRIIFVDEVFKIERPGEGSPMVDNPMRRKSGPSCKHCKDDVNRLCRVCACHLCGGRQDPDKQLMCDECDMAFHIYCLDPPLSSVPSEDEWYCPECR

[3] = target: T3, GST-tagged UHRF1 TTD-L2 (a.a. 125–301) ( (printed UniProt entry is …, UniProt Q96T88 125-301))
T3 chain: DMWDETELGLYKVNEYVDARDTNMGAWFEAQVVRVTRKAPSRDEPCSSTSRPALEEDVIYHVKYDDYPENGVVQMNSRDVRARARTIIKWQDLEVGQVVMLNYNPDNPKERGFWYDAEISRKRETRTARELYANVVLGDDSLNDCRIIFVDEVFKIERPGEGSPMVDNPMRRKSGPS

[4] = target: T4, GST-tagged UHRF1 TTD–PHD R295A/R296A ( (printed UniProt entry is …, UniProt Q96T88 125-364, R295A | R296A))
T4 sequence: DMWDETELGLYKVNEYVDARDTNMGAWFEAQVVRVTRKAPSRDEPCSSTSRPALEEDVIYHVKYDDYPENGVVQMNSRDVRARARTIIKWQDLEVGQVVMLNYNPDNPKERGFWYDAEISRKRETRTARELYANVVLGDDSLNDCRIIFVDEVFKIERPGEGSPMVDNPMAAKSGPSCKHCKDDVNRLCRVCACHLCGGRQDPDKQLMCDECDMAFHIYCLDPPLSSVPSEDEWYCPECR

MPP8 chromo = target: T5, MPP8 chromo (Homo sapiens)
T5 chain: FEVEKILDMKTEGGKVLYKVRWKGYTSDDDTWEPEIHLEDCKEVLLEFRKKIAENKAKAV

[5] = target: T6, GST-tagged chromodomain Y-like protein isoform 2 (CDYL1b) chromodomain ( (printed UniProt entry is …))
T6 chain: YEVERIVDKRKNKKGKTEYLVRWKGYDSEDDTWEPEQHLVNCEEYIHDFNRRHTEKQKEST

[6] = target: T7, GST-tagged UHRF1 tandem Tudor domain (TTD, a.a. 125–285) ( (printed UniProt entry is …, UniProt Q96T88 125-285))
T7 chain: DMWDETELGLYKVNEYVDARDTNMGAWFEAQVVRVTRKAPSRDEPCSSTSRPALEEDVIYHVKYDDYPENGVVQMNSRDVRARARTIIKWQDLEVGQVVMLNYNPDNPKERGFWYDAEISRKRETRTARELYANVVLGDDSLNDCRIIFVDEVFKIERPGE

[7] = target: T8, UHRF1 full-length (a.a. 1–793), MBP fusion ( (printed UniProt entry is …, UniProt Q96T88 1-793))
T8 chain: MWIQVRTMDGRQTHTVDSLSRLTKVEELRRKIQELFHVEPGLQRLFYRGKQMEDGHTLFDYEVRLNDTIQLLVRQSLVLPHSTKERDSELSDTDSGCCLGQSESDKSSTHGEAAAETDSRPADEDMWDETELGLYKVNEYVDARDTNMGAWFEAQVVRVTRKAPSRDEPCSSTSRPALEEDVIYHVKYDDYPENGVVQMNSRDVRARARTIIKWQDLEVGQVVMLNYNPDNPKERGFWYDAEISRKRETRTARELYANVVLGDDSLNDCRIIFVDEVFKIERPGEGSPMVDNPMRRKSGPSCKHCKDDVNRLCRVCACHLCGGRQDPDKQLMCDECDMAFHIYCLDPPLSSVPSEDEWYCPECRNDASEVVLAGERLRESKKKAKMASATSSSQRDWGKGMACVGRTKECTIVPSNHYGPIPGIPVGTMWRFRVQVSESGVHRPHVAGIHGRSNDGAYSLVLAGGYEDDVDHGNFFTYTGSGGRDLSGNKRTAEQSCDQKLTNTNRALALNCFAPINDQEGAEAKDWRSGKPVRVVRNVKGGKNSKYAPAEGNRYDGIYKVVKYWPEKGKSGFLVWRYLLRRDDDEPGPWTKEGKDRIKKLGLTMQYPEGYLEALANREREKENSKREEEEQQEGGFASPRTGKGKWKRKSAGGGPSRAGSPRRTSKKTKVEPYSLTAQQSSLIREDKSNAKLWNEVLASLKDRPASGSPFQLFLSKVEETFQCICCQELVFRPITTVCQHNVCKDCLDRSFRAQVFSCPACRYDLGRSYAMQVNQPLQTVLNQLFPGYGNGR

In the case of {FAM}-IPKRRTARK(Me2)QLPK (not fully specified (C-terminus); printed as FAM-LIG1(118–130)K126me2 peptide) [FAM-LIG1(118–130)K126me2 peptide], the Kd [1] is reported as 10 nM, the Kd [2] is reported as 10 nM and the Kd [3] is reported as 10 nM. For the same binder, the Kd [4] was 8 nM, the Kd (MPP8 chromo) was 32000 nM and the Kd [5] was 6500 nM. The Kd [6] was 40 nM.

With 5FAM-IPKRRTARK(Me2)QLPK[PEG][dK][dK][dK][dR][dK][dV]-NH2 (reading uncertain) [FAM-LIG1(118–130)K126me2-PEG-CPP] the Kd [7] was 8 nM.
